From patent publication US20250313634A1 (WUXI BIOLOGICS SHANGHAI, published 2025)

Tests used:
Assay in all cases: capture ELISA on coated 1.14.4; relative to silent alanine substitutions
[1] = target: T1, hPD-L1_ECD.His point mutant T196A (human, UniProt Q9NZQ7 19-238)
T1 construct: extracellular domain
Method in brief: (§1)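 Capture ELISA in which supernatant containing quantified PD-L1 alanine mutant was detected with HRP anti-His antibody. Absorbance was normalized to the average of control mutants. Epitope residues were called at binding fold change <0.55.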

[2] = target: T2, hPD-L1_ECD.His point mutant G120A (human, UniProt Q9NZQ7 19-238)
T2 construct: extracellular domain
Method in brief: as §1

[3] = target: T3, hPD-L1_ECD.His point mutant D49A (human, UniProt Q9NZQ7 19-238)
T3 construct: extracellular domain
Method in brief: as §1

[4] = target: T4, hPD-L1_ECD.His point mutant L106A (human, UniProt Q9NZQ7 19-238)
T4 construct: extracellular domain
Method in brief: as §1

[5] = target: T5, hPD-L1_ECD.His point mutant K185A (human, UniProt Q9NZQ7 19-238)
T5 construct: extracellular domain
Method in brief: as §1

[6] = target: T6, hPD-L1_ECD.His point mutant L88A (human, UniProt Q9NZQ7 19-238)
T6 construct: extracellular domain
Method in brief: as §1

[7] = target: T7, hPD-L1_ECD.His point mutant K189A (human, UniProt Q9NZQ7 19-238)
T7 construct: extracellular domain
Method in brief: as §1

[8] = target: T8, hPD-L1_ECD.His point mutant V21A (human, UniProt Q9NZQ7 19-238)
T8 construct: extracellular domain
Method in brief: as §1

[9] = target: T9, hPD-L1_ECD.His point mutant L175A (human, UniProt Q9NZQ7 19-238)
T9 construct: extracellular domain
Method in brief: as §1

[10] = target: T10, hPD-L1_ECD.His point mutant K129A (human, UniProt Q9NZQ7 19-238)
T10 construct: extracellular domain
Method in brief: as §1

[11] = target: T11, hPD-L1_ECD.His point mutant L231A (human, UniProt Q9NZQ7 19-238)
T11 construct: extracellular domain
Method in brief: as §1

[12] = target: T12, hPD-L1_ECD.His point mutant E237A (human, UniProt Q9NZQ7 19-238)
T12 construct: extracellular domain
Method in brief: as §1

[13] = target: T13, hPD-L1_ECD.His point mutant M59A (human, UniProt Q9NZQ7 19-238)
T13 construct: extracellular domain
Method in brief: as §1

[14] = target: T14, hPD-L1_ECD.His point mutant P43A (human, UniProt Q9NZQ7 19-238)
T14 construct: extracellular domain
Method in brief: as §1

[15] = target: T15, hPD-L1_ECD.His point mutant A232G (human, UniProt Q9NZQ7 19-238)
T15 construct: extracellular domain
Method in brief: as §1

[16] = target: T16, hPD-L1_ECD.His point mutant N131A (human, UniProt Q9NZQ7 19-238)
T16 construct: extracellular domain
Method in brief: as §1

[17] = target: T17, hPD-L1_ECD.His point mutant R212A (human, UniProt Q9NZQ7 19-238)
T17 construct: extracellular domain
Method in brief: as §1

[18] = target: T18, hPD-L1_ECD.His point mutant V76A (human, UniProt Q9NZQ7 19-238)
T18 construct: extracellular domain
Method in brief: as §1

[19] = target: T19, hPD-L1_ECD.His point mutant K46A (human, UniProt Q9NZQ7 19-238)
T19 construct: extracellular domain
Method in brief: as §1

[20] = target: T20, hPD-L1_ECD.His point mutant L50A (human, UniProt Q9NZQ7 19-238)
T20 construct: extracellular domain
Method in brief: as §1

[21] = target: T21, hPD-L1_ECD.His point mutant V68A (human, UniProt Q9NZQ7 19-238)
T21 construct: extracellular domain
Method in brief: as §1

[22] = target: T22, hPD-L1_ECD.His point mutant A109G (human, UniProt Q9NZQ7 19-238)
T22 construct: extracellular domain
Method in brief: as §1

T13 sequence (Q9NZQ7 19-238 M59A): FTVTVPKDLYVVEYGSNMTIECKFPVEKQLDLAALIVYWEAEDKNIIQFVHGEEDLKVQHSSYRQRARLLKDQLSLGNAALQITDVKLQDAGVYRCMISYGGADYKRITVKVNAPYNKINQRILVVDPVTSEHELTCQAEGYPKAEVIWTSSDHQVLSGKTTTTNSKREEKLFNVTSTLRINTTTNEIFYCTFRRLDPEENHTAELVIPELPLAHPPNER
T14 sequence (Q9NZQ7 19-238 P43A): as the sequence (Q9NZQ7 19-238 M59A) above, with P25A, A41M counted along it
T5 sequence (Q9NZQ7 19-238 K185A): as the sequence (Q9NZQ7 19-238 M59A) above, with A41M, K167A counted along it
T11 sequence (Q9NZQ7 19-238 L231A): as the sequence (Q9NZQ7 19-238 M59A) above, with A41M, L213A counted along it
T9 sequence (Q9NZQ7 19-238 L175A): as the sequence (Q9NZQ7 19-238 M59A) above, with A41M, L157A counted along it
T2 sequence (Q9NZQ7 19-238 G120A): as the sequence (Q9NZQ7 19-238 M59A) above, with A41M, G102A counted along it
T18 sequence (Q9NZQ7 19-238 V76A): as the sequence (Q9NZQ7 19-238 M59A) above, with A41M, V58A counted along it
T3 sequence (Q9NZQ7 19-238 D49A): as the sequence (Q9NZQ7 19-238 M59A) above, with D31A, A41M counted along it
T15 sequence (Q9NZQ7 19-238 A232G): as the sequence (Q9NZQ7 19-238 M59A) above, with A41M, A214G counted along it
T8 sequence (Q9NZQ7 19-238 V21A): as the sequence (Q9NZQ7 19-238 M59A) above, with V3A, A41M counted along it
T20 sequence (Q9NZQ7 19-238 L50A): as the sequence (Q9NZQ7 19-238 M59A) above, with L32A, A41M counted along it
T4 sequence (Q9NZQ7 19-238 L106A): as the sequence (Q9NZQ7 19-238 M59A) above, with A41M, L88A counted along it
T16 sequence (Q9NZQ7 19-238 N131A): as the sequence (Q9NZQ7 19-238 M59A) above, with A41M, N113A counted along it
T19 sequence (Q9NZQ7 19-238 K46A): as the sequence (Q9NZQ7 19-238 M59A) above, with K28A, A41M counted along it
T22 sequence (Q9NZQ7 19-238 A109G): as the sequence (Q9NZQ7 19-238 M59A) above, with A41M, A91G counted along it
T17 sequence (Q9NZQ7 19-238 R212A): as the sequence (Q9NZQ7 19-238 M59A) above, with A41M, R194A counted along it
T12 sequence (Q9NZQ7 19-238 E237A): as the sequence (Q9NZQ7 19-238 M59A) above, with A41M, E219A counted along it
T21 sequence (Q9NZQ7 19-238 V68A): as the sequence (Q9NZQ7 19-238 M59A) above, with A41M, V50A counted along it
T6 sequence (Q9NZQ7 19-238 L88A): as the sequence (Q9NZQ7 19-238 M59A) above, with A41M, L70A counted along it
T10 sequence (Q9NZQ7 19-238 K129A): as the sequence (Q9NZQ7 19-238 M59A) above, with A41M, K111A counted along it
T1 sequence (Q9NZQ7 19-238 T196A): as the sequence (Q9NZQ7 19-238 M59A) above, with A41M, T178A counted along it
T7 sequence (Q9NZQ7 19-238 K189A): as the sequence (Q9NZQ7 19-238 M59A) above, with A41M, K171A counted along it

B1: 1.14.4 (antibody, V domains shown)
VH: EVQLLESGGGLVQPGGSLRLSCAASGFTFSSYAMSWVRQAPGKGLEWVSGISGSGGFTYYADSVKGRFTISRDNSKNTLYLQMNSLRAEDTAVYYCAKPPRGYNYGPFDYWGQGTLVTVSS
VL: SYVLTQPPSVSVAPGQTARITCGGNNIGSKSVHWYQQKPGQAPVLVVYDDSDRPSGIPERFSGSNSGNTATLTISRVEAGDEADYYCQVWDSSSDHVVFGGGTKLTVL
notes: Fully human monoclonal antibody with a human constant region of IgG4 isotype
**Q.** Which fold change [1] does the source give for B1 here?
**A.** The fold change was 0.898 fold.

**Q.** And the fold change [2]?
**A.** Its fold change is 0.895 fold.

**Q.** And the fold change [3]?
**A.** Its fold change is 0.603 fold.

**Q.** What about the fold change [4] of the same binder?
**A.** The fold change was 0.732 fold.

**Q.** What about the fold change [5] of the same binder?
**A.** Its fold change is 0.853 fold.

**Q.** And the fold change [6]?
**A.** The fold change was 1.1 fold.

**Q.** What about the fold change [7] of the same binder?
**A.** Its fold change is 0.759 fold.

**Q.** And the fold change [8]?
**A.** The fold change was 0.803 fold.

**Q.** What about the fold change [9] of the same binder?
**A.** The fold change was 0.842 fold.

**Q.** What about the fold change [10] of the same binder?
**A.** The fold change was 0.586 fold.

**Q.** And the fold change [11]?
**A.** Its fold change is 0.838 fold.

**Q.** And the fold change [12]?
**A.** Its fold change is 0.956 fold.

**Q.** What about the fold change [13] of the same binder?
**A.** Its fold change is 1.01 fold.

**Q.** What about the fold change [14] of the same binder?
**A.** Its fold change is 0.834 fold.

**Q.** What about the fold change [15] of the same binder?
**A.** The fold change was 0.756 fold.

**Q.** What about the fold change [16] of the same binder?
**A.** The fold change was 0.68 fold.

**Q.** What about the fold change [17] of the same binder?
**A.** The fold change was 0.87 fold.

**Q.** What about the fold change [18] of the same binder?
**A.** The fold change was 0.76 fold.

**Q.** And the fold change [19]?
**A.** The fold change was 1.08 fold.

**Q.** And the fold change [20]?
**A.** The fold change was 0.614 fold.

**Q.** And the fold change [21]?
**A.** Its fold change is 0.707 fold.

**Q.** What about the fold change [22] of the same binder?
**A.** Its fold change is 0.797 fold.
